Biological target: CD2
Assay: flow cytometry on primary human T cells at day 5; CD2 detected with the competing clone RPA-2.10

Sequence of CD2 (receptor chain, as listed by the source limits assumed, form in doubt): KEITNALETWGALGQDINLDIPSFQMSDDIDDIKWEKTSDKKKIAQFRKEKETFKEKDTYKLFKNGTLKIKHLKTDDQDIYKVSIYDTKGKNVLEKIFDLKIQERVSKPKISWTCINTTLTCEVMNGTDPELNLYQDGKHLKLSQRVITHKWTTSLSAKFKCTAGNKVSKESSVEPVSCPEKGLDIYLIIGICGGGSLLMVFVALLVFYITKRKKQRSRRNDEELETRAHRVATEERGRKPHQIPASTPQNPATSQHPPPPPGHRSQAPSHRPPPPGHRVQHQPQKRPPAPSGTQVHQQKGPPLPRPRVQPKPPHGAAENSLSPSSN

- IC50 (read off the curve): 0.08 nM
Substance: CD2 RPA naked (antibody)

— patent publication US20260078148A1
